Values of other authors in patent US20180185417.

Molecular target: CD31 (PECAM-1) (Homo sapiens) (UniProt P16284)
Conditions: CITED reported affinity of the commercial aptamer (1.14×10−9 M), method not stated

In the case of CD31 aptamer (APTSCI CD31-2196BCI), the Kd is given as 1.14 nM.
